Assays:
[1] = biological target: T1, human PD-L1/His fusion protein (human, UniProt Q9NZQ7 19-239); test: BLI off-rate; test group 1 (reference itself)
Description: (§1) All 15 antibodies in Table 13 were assayed for and ranked by dissociation rate constant (koff). […] Briefly, antibodies were characterized for affinities and binding kinetics by Octet®RED96 biolayer interferometry (Pall ForteBio LLC). Antibodies were captured by Anti-hIgG Fc Capture (AHC) Biosensors (Pall) at a concentration of 100 nM for 30 seconds. Sensors were then dipped into running buffer (1×pH 7.2 PBS, 0.05% Tween 20, 0.1% BSA) for 60 seconds to check the baseline. Binding was measured by dipping sensors into a single concentration of recombinant human PD-L1/His fusion protein (Novoprotein). Dissociation was followed by dipping sensors into running buffer for 1200 seconds. The association and dissociation curves were fitted to a 1:1 Langmuir binding model using ForteBio Data Analysis software (Pall). […] The off-rate ratio serves as a data normalization. Accordingly, in each test group, the off-rate ratios of the humanized antibodies can be compared with that of the chimeric antibody, and the off-rate ratios of each of the humanized antibodies can be compared to one another within all test groups.

[2] = biological target: T1, human PD-L1/His fusion protein; test: BLI Octet RED96, antibody on AHC sensor, single conc. PD-L1/His; test group 2
Description: as §1

[3] = biological target: T1, human PD-L1/His fusion protein; test: BLI off-rate; test group 3 (reference itself)
Description: as §1

[4] = biological target: T1, human PD-L1/His fusion protein; test: BLI Octet RED96, antibody on AHC sensor, single conc. PD-L1/His; test group 3
Description: as §1

[5] = biological target: T1, human PD-L1/His fusion protein; test: BLI Octet RED96, antibody on AHC sensor, PD-L1/His in solution
Description: Binding of antibodies to PD-L1 was also assessed using biolayer interferometry (BLI) using an Octet® RED96 sensor device (Pall ForteBio LLC). Antibodies were captured by anti-hIgG Fc capture (AHC) Biosensors (Pall) at a concentration of 100 nM for 30 seconds. Sensors were then dipped into running buffer (1×pH7.2 PBS, 0.05% Tween 20, 0.1% BSA) for 60 seconds to check the baseline. Binding was measured by dipping sensors into a series of diluted concentrations of recombinant human PD-L1/His fusion protein. Dissociation was followed by dipping sensors into running buffer for 1200 seconds. The association and dissociation curves were fitted to a 1:1 Langmuir binding model using ForteBio Data Analysis software (Pall). The equilibrium dissociation constant KD (molarity) of the reaction between antibodies and related target proteins was then calculated from the kinetic rate constants using the formula KD=koff/kon.

[6] = biological target: T2, cynomolgus (cyno) PD-L1/His fusion protein (cynomolgus, UniProt G7PSE7 19-239); test: ELISA, coated cyno PD-L1 protein
T2 construct: also called cynomolgus PD-L1; not shown: His tag
T2 sequence (G7PSE7 entry or part of it): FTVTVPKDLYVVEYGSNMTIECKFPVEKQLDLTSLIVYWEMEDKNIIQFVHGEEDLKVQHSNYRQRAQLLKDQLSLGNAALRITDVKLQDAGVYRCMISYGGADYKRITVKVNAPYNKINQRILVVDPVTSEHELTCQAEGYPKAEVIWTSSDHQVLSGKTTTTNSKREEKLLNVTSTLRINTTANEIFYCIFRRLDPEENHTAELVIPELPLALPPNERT
Description: (§2) The ability of an antibody to bind human or cynomolgus (cyno) PD-L1 (binding activity) was determined by ELISA. ELISA plates were incubated overnight at 4° C. with 50 μl of the human or cyno PD-L1 protein described above diluted in PBS buffer, pH 7.4, at 1 μg/ml. Plates were washed four times in washing buffer (PBS containing 0.05% Tween 20) and blocked for 1 hour at 37° C. with 200 μl per well of blocking buffer (1% BSA in PBS containing 0.05% Tween 20). After blocking buffer was removed, diluted purified antibodies (200 nM and 1:5 serial dilutions to provide 7 concentrations of each antibody) were added to the wells at 100 μl per well and incubated at 37° C. for 1 hour. The wells were washed four times with washing buffer, and anti-human IgG (Fc-specific) HRP-conjugated antibody (Sigma), diluted 1:10,000, was added to the wells at 100 μl per well. The plates were incubated for 1 hour at 37° C. and washed four times in washing buffer. 100 μl of tetramethylbenzidine (TMB) chromogenic solution were added per well. Following color development, the reaction was stopped with 1 N HCl, and absorbance at 450 nm was measured on a VARIOSKAN™ LUX multimode microplate reader (ThermoFisher Scientific, Vataa, Finland). The data were processed by GraphPad software, and EC50 values were calculated. The EC50 for binding activity according to this ELSA is the concentration at which an antibody induces a response halfway between the baseline and maximum and indicates the binding ability of the antibody.

[7] = biological target: T1, human PD-L1/His fusion protein; test: ELISA, coated human PD-L1 protein, anti-human Fc detection
Description: as §2

[8] = biological target: T1, human PD-L1/His fusion protein; test: BLI Octet RED96, antibody on AHC sensor, single conc. PD-L1/His; test group 1
Description: as §1

[9] = biological target: human PD-L1/Fc Fusion Protein (human); test: RBA ELISA: coated PD-L1/Fc, competitor biotinylated human PD-1
Chain of human PD-L1/Fc Fusion Protein (human) (chain, as listed by the source limits assumed): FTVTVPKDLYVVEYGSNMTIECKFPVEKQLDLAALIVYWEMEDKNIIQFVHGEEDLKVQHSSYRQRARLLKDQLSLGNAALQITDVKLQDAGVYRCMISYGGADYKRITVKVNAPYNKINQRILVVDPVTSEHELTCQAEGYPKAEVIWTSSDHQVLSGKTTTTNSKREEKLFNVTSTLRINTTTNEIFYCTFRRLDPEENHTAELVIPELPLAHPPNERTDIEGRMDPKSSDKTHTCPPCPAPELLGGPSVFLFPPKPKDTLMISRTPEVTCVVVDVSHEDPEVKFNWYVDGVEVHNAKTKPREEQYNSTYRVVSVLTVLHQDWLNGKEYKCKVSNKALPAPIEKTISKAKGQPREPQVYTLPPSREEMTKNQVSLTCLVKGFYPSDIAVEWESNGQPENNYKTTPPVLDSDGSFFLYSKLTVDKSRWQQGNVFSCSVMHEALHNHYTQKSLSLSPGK
Description: ELISA plates were coated with 100 μl of 1 μg/ml of human PD-L1/Fc in PBS and incubated overnight at 4° C. Plates were washed four times in washing buffer (PBS containing 0.05% Tween 20) and blocked for 1 hour at 37° C. with 200 μl per well of blocking buffer (1% BSA in PBS containing 0.05% Tween 20). […] A human IgG was included as negative control. The signal was developed by adding streptavidin-HRP (Cat. No. S2468, Sigma) (100 μl/well at 1:5000 dilution) and incubating for 40 minutes at 37° C., followed by washing four times in washing buffer. Then, 100 μl of TMB solution were added per well. Following color development, the reaction was stopped with 1 N HCl, and absorbance at 450 nm was measured. The data were processed by GraphPad software, and IC50 values were calculated. […] The signal reduction induced by antibody samples was normalized to inhibition percentage, where the negative control was 0% inhibition, and the absolute value of signal reduction of each antibody divided by the signal of the negative control equals the percent inhibition by the antibody.

[10] = biological target: T3, human PD-L1 on the cell surface (CHO-K1 cells stably expressing human PD-L1) (human, UniProt Q9NZQ7 19-290); test: FACS on CHO-K1/hPD-L1 cells
T3 construct: whole, on cells; Also used here for PD-L1 on the monocyte-derived dendritic cells of the MLR assay (functional rows); also called CHO-K1/PD-L1; CHOK1-PD-L1
T3 sequence (Q9NZQ7 19-290): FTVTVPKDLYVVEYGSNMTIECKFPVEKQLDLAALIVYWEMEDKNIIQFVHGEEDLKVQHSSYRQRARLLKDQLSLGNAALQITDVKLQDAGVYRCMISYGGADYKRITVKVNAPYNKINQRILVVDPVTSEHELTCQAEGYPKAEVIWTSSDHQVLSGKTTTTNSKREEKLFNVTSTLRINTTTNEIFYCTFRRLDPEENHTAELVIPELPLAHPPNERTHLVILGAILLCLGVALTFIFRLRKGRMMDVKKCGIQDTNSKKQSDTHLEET
Description: The ability of the purified antibodies to bind to cell membrane human PD-L1 was determined by FACS analysis. CHO-K1 cells stably expressing human PD-L1 (CHO-K1/hPD-L1 cells) were resuspended in PBS containing 2% FBS (FACS buffer) and seeded at 1×10⁵ cells/well into 96-well round-bottomed plates (Corning; Cat. No. 3799). […] The assay plate was then read on a flow cytometer. The data were processed by GraphPad software, and EC50 values were calculated. The EC50 for binding activity according to this FACS analysis is the concentration at which of an antibody induces a response halfway between the baseline and maximum and reflects the binding ability of the antibody.

[11] = biological target: T1, human PD-L1/His fusion protein; test: BLI off-rate; test group 2 (reference itself)
Description: as §1

[12] = biological target: T2, cynomolgus (cyno) PD-L1/His fusion …; test: BLI Octet RED96, cyno PD-L1; cyno PD-L1, not human

T1 sequence (Q9NZQ7 19-239 limits assumed): as the sequence (G7PSE7 entry or part of it) above, with T33A, S34A, N62S, Q68R, R82Q, L173F, A185T, I192T, L215H counted along it

B1: EM0005-mAb86c (antibody, human IgG1, kappa, V domains shown)
VH: QVQLQQSGAELVRPGSSVKMSCKTSGYTFTTYGINWVKQRPGQGLEWIGYIYIGNGYTEYNEKFKGKATLTSDPSSRTAYMQLSSLTSEDSAIYFCARDLMVIAPKTMDYWGQGTSVTVSS
VL: DIQMNQSHKFMSTSVGDRVSITCKASQDVGTAVAWYQQKPGQSPKLLIYWASTRHTGVPDRFTGGGSGTDFTLTISNVQSEDLADYFCQQYSSYPYTFGGGTKLEMKR
notes: Chimeric full-length IgG1; also called EM0005-86c; EM0005-86C
In the case of B1, the “Off-Rate Ratio to that of EM0005-86c” value [1] is reported as 100%, the koff [2] is reported as 0.00179 s⁻¹ and the “Off-Rate Ratio to that of EM0005-86c” value [3] is reported as 100%. It also gave a koff [4] of 0.00103 s⁻¹, a Kd [5] of 0.261 nM and an EC50 [6] of 0.1 nM. For the same binder, the EC50 [7] was 0.14 nM, the koff [8] was 0.00123 s⁻¹ and the IC50 [9] was 1.09 nM. For the same binder, the “Inhibition (percent)” value [9] was 97.4%, the EC50 [10] was 0.22 nM and the “Off-Rate Ratio to that of EM0005-86c” value [11] was 100%. The Kd [12] was 0.373 nM.

— patent US20230242675A1 (SHANGHAI EPIMAB BIOTHERAPEUTICS, published 2023)
